According to the supplement of paper PMC9170038:

Tested on: MS2 coat protein
Assay: apparent KD of MS2 coat protein; designed switch direction (-1 OFF switch, 1 ON switch): -1; higher = weaker reporter binding
Summary of the method: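 SNAP-549-labelled MS2 coat protein was titrated, doubling from 0.7 or 1.5 nM to 3 µM, over designed RNA switches transcribed on Illumina chips by stalled E. coli RNA polymerase. Runs were done without input, with 200 uM small-molecule ligand, or with an oligonucleotide input. Apparent KD is the per-design median over clusters of curve-fitted normalised fluorescence.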

[1] = Eterna round: R95, input ligand: FMN 200 uM
[2] = Eterna round: R95, input ligand: microRNA oligo, concentration not stated
[3] = Eterna round: R95, input ligand: none
[4] = input ligand: microRNA oligo, concentration not stated

Sequence | apparent KD of MS2 coat protein (input ligand: FMN 200 uM) [nM] | apparent KD of MS2 coat protein (input ligand: none) [nM] | apparent KD of MS2 coat protein [1] [nM] | apparent KD of MS2 coat protein [2] [nM] | apparent KD of MS2 coat protein [3] [nM] | apparent KD of MS2 coat protein [4] [nM]
AAAUCGGCAGGAUAUACAUGAGGAUCACCCAUGUAAAUUUUUCGUUUAACUUGAAUGUGUAGAAGGGCCAUUAA [Ex3 #64] (Eterna round: R97, puzzle: Exclusion 3) | 24.8 | 24.6 | – | – | – | –
AAAUCGGUAGAGGAUAUUGUACAGGAAACGGUGCAAGAAGGUUACACAUGAGGAUCACCCAUGUUAAAUAGCGA [EX6 #53] (Eterna round: R97, puzzle: Exclusion 6) | 26.9 | 18.1 | – | – | – | –
AAAUCGGUGGAGGAUAUUGUACAGGAAACGGUGCGAGAAGGUUACACAUGAGGAUCACCCAUGUUAAAUAGCGA [EX6 #56] (Eterna round: R97, puzzle: Exclusion 6) | 25.2 | 22.1 | – | – | – | –
AAAUGACAUUAGGAUAUGUAACGCGGUUGCCGCACAGAAGGGAUGACUUGAGGAUCACCCAAGUGACCCAAGGA [Tixebion] (Eterna round: R97, puzzle: Exclusion 6) | 26.4 | 28.2 | – | – | – | –
AAAUGAGAGCAGGAUAUCUUAUAAAUGUAUGAAAGAGAAGGGCUCACAUGAGGAUCACCCAUGUGGUCCUAGAU [jl-ex6-4.77 jandersonlee mod] (Eterna round: R97, puzzle: Exclusion 6) | 673 | 32.7 | – | – | – | –
AAAUGUUCGGAGGAUAUAGAACGAUUGUCCGAGCUAGAAGGCCGAACAUGAGGAUCACCCAUGUGUACCUGAAA [Atmare] (puzzle: Exclusion 6) | – | – | 256 | 38.8 | 41.2 | –
AAAUUAGCAAGUAGAUCCGACAUGAGGAUCACCCAUGUUAUCUGAAAGAACGCAGCAUAAUUGUGAGCUCGUCUAAA [Sensor-V1 #4] (Eterna round: R97, puzzle: Sensor, turn-off variant 1) | 93.7 | 91.5 | – | – | – | –
AAAUUAGCAAGUAGGUCCGACAUGAGGAUCACCCAUGUAAGCUAAUCUUACGCUGCAUGAGAGUGCGCUCGUCUUAA [Sensor-V1 #19] (Eterna round: R97, puzzle: Sensor, turn-off variant 1) | 360 | 515 | – | – | – | –
AAAUUAGCAAGUAGGUCCGACAUGAGGAUCACCCAUGUUAGCUAAUCUAACGCUGCAUGAGAGUGCGCUCGUCUUAA [Sensor-V1 #20] (Eterna round: R97, puzzle: Sensor, turn-off variant 1) | 140 | 149 | – | – | – | –
AAAUUCAGAGGAUAUGCGCAUAGAUAAGACUUUUUUUCUUAACAUGAGGAUCACCCAUGUAGAAGGCUGUAAAC [Ex2 #61] (Eterna round: R97, puzzle: Exclusion 2) | 18.8 | 16.2 | – | – | – | –
AAAUUCUGAGGAUAUCGAUGUUUGUACAUGAGGAUCACCCAUGUCCUUUUUAUUUUUUCCCGAGAAGGCAGUGUAU [JR_E5_Sub099] (puzzle: Exclusion 5) | – | – | – | 36.6 | – | –
AAAUUGGUAGAGGAUAUCGCACAGGAUUUACUGCGAGAAGGCUGCACAUGAGGAUCACCCAUGUUUAGUUGCGA [EX6 #36] (Eterna round: R97, puzzle: Exclusion 6) | 20.3 | 17.3 | – | – | – | –
AAAUUGUGAGGAUAUUCGUAGUACACGGAGACGUGUAUUACGGAGAAGGCACAUGAGGAUCACCCAUGUUCCUU [jl-ex4-13 Eli mod] (Eterna round: R97, puzzle: Exclusion 4) | 103 | 19.1 | – | – | – | –
AACAAAAGCGUAGGAUAUGACUGGGCUCAUGCCUAACAUAACUACAAACAUGAGGAUCACCCAUGUCAGAAGGACGAAUAAAAU [Isesbequti] (Eterna round: R96, puzzle: Exclusion NG 2) | 87.1 | 72 | – | – | – | 57.5
AACAAGCUUUUAAGAUGAAAGAUAGUAGGUAGCUCCUUUACAUGAGGAUCACCCAUGUUUGUGUAGCUCGAUCUUAU [JR_SV3TOV2_Sub076] (puzzle: Sensor v3, turn-off variant 2) | – | – | 12.3 | 37.4 | 11.5 | –
AACACUGUAGGAUAUCAUGAACUGGACUUGAGGAUCACCCAAGUGUAUCCUGGAGUGCCGUGAGAAGGACGGAAAA [Erzalelaan] (Eterna round: R97, puzzle: Exclusion 5) | 56.5 | 46.9 | – | – | – | –
AACAGUACAGGAUAUACAUGAGGAUCACCCAUGUGAGAAACCACUGGCGUACCAGAAAGUAGAAGGGUACUGGA [Moding Maslow Revisited (73) 29] (Eterna round: R96, puzzle: Exclusion 3) | 307 | 146 | – | – | – | 160
AACCAUGAAGGAUAUGACUUAACGAACAUGAGGAUCACCCAUGUGACCGAGCAGUGUUGAUCAGAAGGUUAAGGUG [Rier] (puzzle: Exclusion 5) | – | – | 101 | 83.7 | 139 | –
AACCCUUGUGUUAGGAUAUGUCACUACCAUAUGCGACAGAAGGAACAUGAGGAUCACCCAUGUGAGUUAGCCAA [Quesveququ] (puzzle: Brourd's mod of Exclusion 4) | – | – | – | 36 | – | –
AACCUGAGGCAAAGCUUUAGGUGUACAUGAGGAUCACCCAUGUAGGAUAUGGUAGGCAAAGCUUACCAGAAGGACAUAAAGGUU [Mat - Exclusion NG 3 - Mod of JL - D45] (Eterna round: R96, puzzle: Exclusion NG 3) | 81.4 | 47.7 | – | – | – | 36.4
AACCUGAGGCUUUGCUUUAGGUGUACAUGAGGAUCACCCAUGUAGGAUAUGGUAGGCUUUGCUUACCAGAAGGACAUGUUAAUU [JL ENG3 1.11] (Eterna round: R96, puzzle: Exclusion NG 3) | 201 | 47.1 | – | – | – | 48.9
AACCUGAGGCUUUGCUUUAGGUGUACAUGAGGAUCACCCAUGUAGGAUAUGGUAGGCUUUGCUUACCAGAAGGACAUUUAGGUU [JL ENG3 1.15] (Eterna round: R96, puzzle: Exclusion NG 3) | 110 | 43 | – | – | – | 33.6
AACGACUGAGGAUAUACAUGAGGAUCACCCAUGUGUUGAAAUACGUGCUUGGUUAACUGUAGAAGGCAGAAAAU [Isxeen] (puzzle: Exclusion 3) | – | – | 21.9 | 12.8 | 14 | –
